Experimental data taken from patent US20240400689A1.
Values joined by “and” are separate entries in the source; they are usually repeats but may differ in a detail not shown here. Equal entries are not always repeated.

What was measured:
[1] = target: human CD276 protein (human) (UniProt Q5ZPR3); assay: FACS on SKOV3 cells
[2] = target: human CD276 protein (human) (UniProt Q5ZPR3); assay: cell-based or functional assay

Sequence of human CD276 protein (human) (Q5ZPR3 29-534): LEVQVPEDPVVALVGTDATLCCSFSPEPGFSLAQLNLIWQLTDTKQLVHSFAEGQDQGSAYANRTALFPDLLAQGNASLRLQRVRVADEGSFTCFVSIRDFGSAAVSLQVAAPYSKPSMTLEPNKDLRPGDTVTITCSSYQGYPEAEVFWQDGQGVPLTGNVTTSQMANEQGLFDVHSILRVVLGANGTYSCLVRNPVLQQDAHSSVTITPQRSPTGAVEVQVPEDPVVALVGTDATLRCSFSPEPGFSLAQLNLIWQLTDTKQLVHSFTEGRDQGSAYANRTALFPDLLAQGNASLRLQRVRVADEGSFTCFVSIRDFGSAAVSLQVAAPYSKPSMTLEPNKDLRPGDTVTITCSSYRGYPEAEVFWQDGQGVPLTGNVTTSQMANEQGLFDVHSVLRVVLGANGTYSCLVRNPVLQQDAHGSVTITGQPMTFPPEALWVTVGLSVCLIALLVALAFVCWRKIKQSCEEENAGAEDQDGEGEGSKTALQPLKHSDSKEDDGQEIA

MFI (Max) [1]	EC50 of antibody induced CDC effect [2]	Substance	Top cytotoxicity (%), CDC [2]
115		igG (antibody)	
	8.91 nM and 9.64 nM	MGA271-WT Fc (antibody)	19.6% and 19.8%
